Data as given in patent US20250019454A1 (BIOCYTOGEN PHARMACEUTICALS BEIJING, published 2025).
Substitutions are numbered along the chain they refer to.

T1: ΔCRD3-TNFR2 protein (with CRD3 deletion), on CHO-S cells (human, UniProt P20333 23-461)
T1 construct: also called CHO-SΔCRD3-TNFR2; TNFR2 lacking CRD3
T1 sequence: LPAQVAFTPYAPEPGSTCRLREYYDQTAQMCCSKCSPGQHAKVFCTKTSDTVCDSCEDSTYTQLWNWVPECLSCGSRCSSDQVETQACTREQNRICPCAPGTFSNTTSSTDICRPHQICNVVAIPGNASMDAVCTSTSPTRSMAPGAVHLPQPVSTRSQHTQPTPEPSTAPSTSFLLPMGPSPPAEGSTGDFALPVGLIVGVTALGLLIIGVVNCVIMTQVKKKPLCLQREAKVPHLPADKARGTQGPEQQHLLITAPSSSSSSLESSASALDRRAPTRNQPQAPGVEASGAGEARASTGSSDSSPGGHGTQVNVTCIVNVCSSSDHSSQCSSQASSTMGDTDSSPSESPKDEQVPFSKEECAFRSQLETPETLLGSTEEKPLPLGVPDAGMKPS

T2: ΔCRD4-TNFR2 protein (with CRD4 deletion), on CHO-S cells (human, UniProt P20333 23-461)
T2 construct: also called CHO-SΔCRD4-TNFR2; TNFR2 lacking CRD4
T2 sequence: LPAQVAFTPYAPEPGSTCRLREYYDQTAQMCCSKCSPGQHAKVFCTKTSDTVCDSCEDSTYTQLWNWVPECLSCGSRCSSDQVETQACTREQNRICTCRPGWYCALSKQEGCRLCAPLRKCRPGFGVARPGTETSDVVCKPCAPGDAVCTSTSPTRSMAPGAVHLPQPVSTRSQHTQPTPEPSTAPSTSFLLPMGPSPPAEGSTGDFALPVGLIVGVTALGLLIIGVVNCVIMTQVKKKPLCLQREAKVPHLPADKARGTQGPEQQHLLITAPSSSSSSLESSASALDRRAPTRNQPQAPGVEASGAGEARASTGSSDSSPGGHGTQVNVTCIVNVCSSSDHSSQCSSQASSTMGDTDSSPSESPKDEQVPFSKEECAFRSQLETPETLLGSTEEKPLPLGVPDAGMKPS

T3: His-tagged human TNFR2 (Human TNFR2/CD120b/TNFRSF1B Protein, His Tag, Acrobiosystems Cat #: TN2-5227) (human, UniProt P20333 23-257)
T3 construct: Bought protein; also called hTNFR2-His; Recombinant human TNFR2 proteins with His-tag; not shown: His tag
T3 sequence: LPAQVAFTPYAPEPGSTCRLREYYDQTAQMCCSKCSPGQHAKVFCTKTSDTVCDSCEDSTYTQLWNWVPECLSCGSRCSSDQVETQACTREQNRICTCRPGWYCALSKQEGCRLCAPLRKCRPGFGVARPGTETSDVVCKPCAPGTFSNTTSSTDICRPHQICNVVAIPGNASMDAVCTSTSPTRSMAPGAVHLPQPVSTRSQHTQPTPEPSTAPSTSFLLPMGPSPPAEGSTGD

T4: human TNFR2 (expressed on cells) (human, UniProt P20333 23-461)
T4 construct: also called hTNFR2; human TNF Receptor 2
T4 sequence: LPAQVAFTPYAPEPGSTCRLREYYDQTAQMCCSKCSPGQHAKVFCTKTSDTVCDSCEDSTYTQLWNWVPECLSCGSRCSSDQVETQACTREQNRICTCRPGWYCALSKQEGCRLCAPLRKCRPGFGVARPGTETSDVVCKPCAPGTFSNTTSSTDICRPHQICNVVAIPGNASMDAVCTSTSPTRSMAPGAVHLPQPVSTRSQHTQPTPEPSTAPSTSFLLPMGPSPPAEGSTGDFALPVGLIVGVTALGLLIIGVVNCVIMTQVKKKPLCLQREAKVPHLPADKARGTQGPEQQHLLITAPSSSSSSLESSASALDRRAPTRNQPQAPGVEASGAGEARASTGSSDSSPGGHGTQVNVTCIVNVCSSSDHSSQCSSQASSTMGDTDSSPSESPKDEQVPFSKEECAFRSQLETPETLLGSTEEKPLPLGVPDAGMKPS

B1: BC-1C3-IgG1 (antibody, V domains shown)
VH: QVQLVESGGGVVHPGKSLRLSCAASGFTFNIYGMHWVRQAPGKGLEWVALISYDGNDKYFADSVKGRFTISRDNSKNTLYLQMNSLRAEDTAVYYCAKAVDTAVVTFFDYWGQGTLVTVSS
VL: EIVMTQSPVTLSVSPGERATLSCRASQSVSSNLAWYQQKPGQAPRLLIYSASTRATGIPARFSGSGSGTEFTLTISSLQSEDLAVYYCQQYSNWPFTFGPGTKVDIK
notes: Human VH/VL joined to the human IgG1 subtype
B2: BC-1A8-IgG1 (antibody, V domains shown)
VH: QVQLQQSGPGLVKPSQTLSLTCAISGDSVSSNSAAWNWIRQSPSRGLEWLGRTYYRSKWYNDYALSVKSRITINPETSKNQFSLQLNSVTPEDTAVYYCAREDGVGGTKDYFDYWGQGTLVTVSS
VL: DIQMTQSPSSLSASVGDRVTITCQASQDIDNYLNWYQQKPGKAPKLLIYDVSNLEIGVPSRFSGSGSGTDFTFTISSLQPEDIATYYCQQYDNLPLTFGQGTRLEIK
notes: Fully human VH/VL joined to the human IgG1 subtype, kappa light chain (RenMab mice)
B3: BC-1F4-IgG1 (antibody, V domains shown)
VH: B2 VH with N32D, A34S, A64T, L65V, E76D
VL: B2 VL with D30S, V51A, I56T, S76N, I83F, Y87F, L96I
notes: as for B1
B4: BC-1F10-IgG1 (antibody, V domains shown)
VH: QVQLQQWGAGLLKPSETLSLICAVYDGSFSGDYWSWIRQPPGKGLEWIGEINHSGSTNYNPSLKSRVTISVDTSKNQFSLKLSSVTAADTAVYYCARGHWNYDYYYGMDVWGQGTTVTVSS
VL: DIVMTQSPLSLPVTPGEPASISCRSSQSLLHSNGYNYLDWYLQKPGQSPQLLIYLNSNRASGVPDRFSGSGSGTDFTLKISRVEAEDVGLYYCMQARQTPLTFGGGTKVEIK
notes: as for B1
B5: BC-1B6-IgG1 (antibody, V domains shown)
VH: QVQLVESGGGVVQPGRSLRLSCAASGFTFSNFGMHWVRQAPGKGLEWVAVIWYEGSDKYYADSVKGRFTISRDNSKNTLYLQMNSLRAEDTAVYYCARDSSWGFLLYGMDVWGQGTTVTVSS
VL: DVVMTQSPLSLPVTLGQPASISCRSSRSLEYSDGNTYLNWFQQRPGQSPRRLIYKVSNRDSGVPDRFSGSGSGTAFTLKISGVEAEDVGVYYCMQGTHWPPTFGGGTKVEIK
notes: as for B1

Target: T1, ΔCRD3-TNFR2 protein (with CRD3 …)
Experiment: FACS on CHO-S cells with ΔCRD3-TNFR2, AF647 anti-human IgG Fc secondary
Excerpt: (§1) TNFR2 has four cysteine rich domains (CRD). In another experiment, FACS was used to detect the binding of anti-hTNFR2 antibodies to TNFR2 proteins with different structural domains. Secondary antibody (Alexa Fluor® 647 AffiniPure F(ab′) 2 Fragment Goat Anti-Human IgG, Fcγ fragment specific, Jackson ImmunoResearch Laboratories, Inc., Cat #: 151524) was used. The fluorescence-labeled secondary antibody can attach to the Fc region of the anti-hTNFR2 antibodies so that the anti-hTNFR2 antibodies that are bound to the ΔCRD cells can be detected by FACS. Specifically, ΔCRD1-TNFR2 protein (with CRD1 deleteion), ΔCRD2-TNFR2 protein (with CRD2 deleteion), ΔCRD3-TNFR2 protein (with CRD3 deleteion) or ΔCRD4-TNFR2 protein (with CRD4 deleteion) were expressed in CHO-S cells respectively, and then the binding between the cells and different anti-hTNFR2 antibodies was detected.

Binder | positive rate of binding (% of cells)
B1 | 0.81%
B2 | 0.52%
B3 | 0.47%
B4 | 23.1%

Target: T2, ΔCRD4-TNFR2 protein (with CRD4 …)
Experiment: FACS on CHO-S cells with ΔCRD4-TNFR2, AF647 anti-human IgG Fc secondary
Excerpt: as §1

Binder | positive rate of binding (% of cells)
B1 | 1.85%
B2 | 29.4%
B3 | 21.3%
B4 | 38.3%

Target: T3, His-tagged human TNFR2 (Human …)
Experiment: SPR Biacore 8K, antibody captured on Protein A chip, hTNFR2-His as analyte, 1:1 model
Protocol: The binding affinity of the anti-TNFR2 antibodies to human TNFR2 and TNFR1 (Tumor necrosis factor receptor 1) were measured using surface plasmon resonance (SPR) using Biacore (Biacore, INC, Piscataway NJ) 8K biosensor equipped with pre-immobilized Protein A sensor chips.
Purified anti-TNFR2 antibodies were diluted to 1 μg/mL and then injected into the Biacore 8K biosensor at 10 μL/min for about 50 seconds to achieve a desired protein density (e.g., about 50 response units (RU)). […] Dissociation was monitored for 600 seconds. The chip was regenerated after the last injection of each titration with Glycine (pH 2.0, 30 μL/min for 30 seconds).

Binder | Kd | koff | kon
B1 | 9.5 nM | 0.00115 s⁻¹ | 121000 M⁻¹ s⁻¹
B5 | 3.89 nM | 0.00644 s⁻¹ | 1.66e+06 M⁻¹ s⁻¹
B2 | 1.36 nM | 0.00126 s⁻¹ | 924000 M⁻¹ s⁻¹
B3 | 2.21 nM | 0.00159 s⁻¹ | 718000 M⁻¹ s⁻¹
B4 | 5.1 nM | 0.000467 s⁻¹ | 91500 M⁻¹ s⁻¹

Target: T4, human TNFR2 (expressed on cells)
Experiment: flow cytometry competition, CHO cells with human TNFR2, antibody 10 µg/mL, Biotin-hTNFα 0.5 µg/mL
Protocol: (§2) 30 μl of Biotin-hTNFα (Acro Biosystems, Cat #: TNA-H82E1) was added to each well (with a final concentration of 0.5 μg/mL in each well). The cells with Biotin-hTNFα and the antibodies were incubated at 4° C. for 30 minutes.
(§3) The signals for AF647 and PE were determined by flow cytometry (Thermo Attune NX).

Binder | percentage of tested cells that had Streptavidin signals
B1 | 71.1%
B5 | 75.1%
B2 | 12%
B3 | 18.5%
B4 | 51.9%

Target: T4, human TNFR2 (expressed on cells)
Experiment: flow cytometry competition, CHO cells with human TNFR2, antibody 2.5 µg/mL, Biotin-hTNFα 0.5 µg/mL
Protocol: as §2, §3

Binder | percentage of tested cells that had Streptavidin signals
B1 | 81.5%
B5 | 87.2%
B2 | 29.9%
B3 | 59.5%
B4 | 54.5%

Target: T4, human TNFR2 (expressed on cells)
Experiment: flow cytometry competition, CHO cells with human TNFR2, antibody 0.1565 µg/mL, Biotin-hTNFα 0.5 µg/mL
Protocol: as §2, §3

Binder | percentage of tested cells that had Streptavidin signals
B1 | 74.3%
B5 | 82.7%
B2 | 67.4%
B3 | 76.2%
B4 | 55.2%
